These results are taken from paper PMC4694770, “Gene Regulatory Mechanisms Underlying the Spatial and Temporal Regulation of Target-Dependent Gene Expression in Drosophila Neurons”.

In series [1] the target is T1, GST-MH1-Mad (GST-MadN) (Drosophila melanogaster, UniProt P42003 26-150). As to the kind of experiment: EMSA; 1 ug poly(dI-dC), 5 mM MgCl2; out-competed by unlabeled WT; Ap: 20 mM HEPES pH 7.8, 50 mM KCl, 10% glycerol, 0.25 mM EDTA, 0.1 mg/ml BSA, 1 mM DTT, 21 C; Mad: 25 mM Tris pH 7.5, 35 mM KCl, 80 mM NaCl, 5 mM MgCl2, 3.5 mM. Particulars: protein: recombinant; tags: GST (pGEX6p1); label: IRDye 700. (In EMSA bound probe runs differently from free probe, usually more slowly.)

In series [2] the target is T2, His::Svp (Drosophila melanogaster, UniProt P16375 1-543).
T2 sequence: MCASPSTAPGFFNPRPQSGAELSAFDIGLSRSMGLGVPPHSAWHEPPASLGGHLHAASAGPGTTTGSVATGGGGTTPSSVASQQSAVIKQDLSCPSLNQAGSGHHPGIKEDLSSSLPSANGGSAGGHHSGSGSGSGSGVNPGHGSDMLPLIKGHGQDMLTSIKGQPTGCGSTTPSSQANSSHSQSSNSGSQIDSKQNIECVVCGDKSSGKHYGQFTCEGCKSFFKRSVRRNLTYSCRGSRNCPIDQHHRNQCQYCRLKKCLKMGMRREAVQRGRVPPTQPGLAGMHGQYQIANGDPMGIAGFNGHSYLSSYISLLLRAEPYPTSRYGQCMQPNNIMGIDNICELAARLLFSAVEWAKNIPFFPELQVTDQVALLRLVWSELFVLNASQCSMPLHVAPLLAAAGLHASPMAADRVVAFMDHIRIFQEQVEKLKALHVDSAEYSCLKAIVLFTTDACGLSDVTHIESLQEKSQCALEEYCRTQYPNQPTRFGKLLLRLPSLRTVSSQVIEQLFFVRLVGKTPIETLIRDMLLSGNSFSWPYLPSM
As to the kind of experiment: EMSA; with or without poly(dI-dC); out-competed by WT at 20:1; Ap: 20 mM HEPES pH 7.8, 50 mM KCl, 10% glycerol, 0.25 mM EDTA, 0.1 mg/ml BSA, 1 mM DTT, 21 C; Mad: 25 mM Tris pH 7.5, 35 mM KCl, 80 mM NaCl, 5 mM MgCl2, 3.5 mM. Particulars: protein: recombinant; tags: N-term His; GST removed with PreScission protease; chain copies: 2; label: IRDye 700.

Series [3] concerns the target T1, GST-MH1-Mad (GST-MadN). As to the kind of experiment: competition; vs labeled BMP-RE; Ap: 20 mM HEPES pH 7.8, 50 mM KCl, 10% glycerol, 0.25 mM EDTA, 0.1 mg/ml BSA, 1 mM DTT, 21 C; Mad: 25 mM Tris pH 7.5, 35 mM KCl, 80 mM NaCl, 5 mM MgCl2, 3.5 mM. Particulars: protein: recombinant; tags: GST (pGEX6p1); label: unlabeled.

T1 sequence (P42003 26-150): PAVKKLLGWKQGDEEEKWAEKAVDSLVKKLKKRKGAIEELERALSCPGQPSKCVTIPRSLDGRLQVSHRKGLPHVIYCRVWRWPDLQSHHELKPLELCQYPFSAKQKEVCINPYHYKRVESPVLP

B1: BMP-RE probe (dsDNA)
DNA 1: GCCAGAGGCGCCACAATGTATCCCGTT
DNA 2: AACGGGATACATTGTGGCGCCTCTGGC
Take B1: in series [1], the binding result is recorded as “binds”.

B2: DR1 Svp probe (dsDNA)
DNA 1: AGCTCTCAGGTCAGAGGTCAGAGAGCT
DNA 2: AGCTCTCTGACCTCTGACCTGAGAGCT
In the case of B2, the binding result in series [2] is given as “binds”.

B3: MutMad BMP-RE competitor (dsDNA)
DNA 1: GCCAGATAGTAGACAATGTATCCCGTT
DNA 2: AACGGGATACATTGTCTACTATCTGGC
On to B3, for which, in series [3], the binding result is “no binding”.
